Assay results reported in patent US20070015155A1 (published 2007).

Biological target: T1, GST protein (UniProt P08515 1-218 = GST)
T1 construct: Control protein of the GST pull-down, on glutathione beads; also called protein consisting of the GST part alone; product of pGEX-6P-1
Assay: GST pull-down with 35S-labeled in vitro translated protein, SDS-PAGE, autoradiography
Experimental: Using the protein GST-Cbl prepared above in (2), the presence or absence of the direct interaction of human and mouse CbAP40 proteins with the c-Cbl protein was confirmed by the GST-pull down method (Zikken Kougaku, Vol. 13, No. 6, 1994, p. 528, Matsushime, et al.). Using 0.5 μg of pcDNA-CbAP40 prepared above in Example 1(4) or pcDNA-mCbAP40 prepared above in Example 8(2) as a template, and additionally using 40 μl of TNT kit (TNT^R Quick Coupled Transcription/Translation System; Promega) and 1.3 MBq of a radioisotope (redivue Pro-mix L-[³⁵S]; Amersham) according to the attached protocol, human or mouse CbAP40 protein radioactively labeled was prepared by in vitro transcription and translation. Then, 15 μl each of the prepared solution of human or mouse CbAP40 protein was mixed with 1 μl of the GST protein or GST-Cbl purified on glutathione beads as described above in (2) to which 0.3 ml of Buffer A (50 mM Tris-HCl, pH 7.5, 10% glycerol, 120 mM NaCl, 1 mM EDTA, 0.1 mM EGTA, 0.5 mM PMSF, 0.5% NP-40) was added. The resulting mixture was shaken at 4° C. for one hour. Subsequently, the protein binding to the GST protein or GST-Cbl on the bead was co-precipitated by centrifugation. […] Consequently, a band never detected in mixing the GST protein was detected in case of mixing GST-Cbl.

T1 sequence (P08515 whole entry): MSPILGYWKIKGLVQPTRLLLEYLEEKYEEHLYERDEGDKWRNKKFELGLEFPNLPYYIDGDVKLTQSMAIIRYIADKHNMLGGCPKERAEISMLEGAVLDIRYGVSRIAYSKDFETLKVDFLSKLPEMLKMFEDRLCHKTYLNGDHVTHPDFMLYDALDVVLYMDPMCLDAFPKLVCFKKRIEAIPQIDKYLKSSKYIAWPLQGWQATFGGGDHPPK

binding result: no binding
B1: human CbAP40-V5-His6 fusion protein (other, not shown: small tags and cut ends)
chain: MMSSSWPGTSPRLSRGSGSCLTSGATGPCQADSSLKAGPGAGVFFLSSAEGEQISFLFDCIVRGISPTKGPFGLRPVLPDPSPPGPSTVEERVAQEALETLQLEKRLSLLSHAGRPGSGGDDRSLSSSSSEASHLDVSASSRLTAWPEQSSSSASTSQEGPRPAAAQAAGEAMVGASRPPPKPLRPRQLQEVGRQSSSDSGIATGSHSSYSSSLSSYAGSSLDVWRATDELGSLLSLPAAGAPEPSLCTCLPGTVEYQVPTSLRAHYDTPRSLCLAPRDHSPPSQGSPGNSAARDSGGQTSAGCPSGWLGTRRRGLVMEAPQGSEATLPGPAPGEPWEAGGPHAGPPPAFFSACPVCGGLKVNPPP
modifications: radioactively labeled by in vitro transcription and translation with redivue Pro-mix L-[35S]
notes: Made by in vitro transcription/translation (TNT kit) from pcDNA-CbAP40; 411 amino acids in total with the 45-residue C-terminal tag. 'mature' stands here for the full-length protein (no signal peptide is mentioned); also called human CbAP40 protein; Cbl associated protein 40
